Experiments:
Assay in all cases: cell-based or functional assay
[1] = target: HIV-1 Env of isolate MGRM-F1-006 (subtype F) (HIV-1)
[2] = target: HIV-1 Env of isolate MG RM-D-029 (subtype D) (HIV-1)
[3] = target: HIV-1 SC422661.8 Env (pseudovirus) (HIV-1)
[4] = target: HIV-1 MGRM-Chronic-B-020 Env (pseudovirus) (HIV-1)
[5] = target: HIV-1 Env of isolate MG RM-D-026 (subtype D) (HIV-1)
[6] = target: HIV-1 Env of isolate MGRM-C-005 (pseudovirus) (HIV-1 isolate MGRM-C-005, subtype C)
[7] = target: HIV-1 Env of isolate MG RM-D-022 (subtype D) (HIV-1)
[8] = target: HIV-1 Env of isolate MGRM-C-024 (pseudovirus) (HIV-1 isolate MGRM-C-024, subtype C)
[9] = target: HIV-1 Env of isolate MGRM-F1-022 (HIV-1)
[10] = target: HIV-1 Env of isolate MGRM-F1-018 (HIV-1)
[11] = target: HIV-1 JR-CSF Env N134A (HIV-1 (isolate JR-CSF)) (UniProt P20871)
[12] = target: HIV-1 JR-CSF Env D474A (HIV-1 (isolate JR-CSF)) (UniProt P20871)
[13] = target: HIV-1 Env of isolate MG RM-D-028 (subtype D) (HIV-1)
[14] = target: HIV-1 Env of isolate 93WR029 (HIV-1)
[15] = target: HIV-1 Env of isolate 92RW008 (HIV-1)
[16] = target: HIV-1 Env of isolate 93UG077 (HIV-1)
[17] = target: HIV-1 Env of isolate 92WR024 (HIV-1)
[18] = target: HIV-1 CMU02 envelope glycoprotein (Env) on pseudovirus (HIV-1)
[19] = target: HIV-1 Env of pseudovirus TRO.11 (Acute), clade B (HIV-1)
[20] = target: HIV-1 MGRM-C-026 envelope glycoprotein (Env) on pseudovirus (HIV-1)
[21] = target: HIV-1 Env of isolate MGRM-D-024 (clade D) (HIV-1)
[22] = target: HIV-1 Env of isolate MGRM-D-028 (clade D) (HIV-1)
[23] = target: HIV-1 MGRM-C-014 Env (HIV-1)
[24] = target: HIV-1 Env of isolate 92UG114 (HIV-1)
[25] = target: HIV-1 Env of isolate MGRM-D-004 (clade D) (HIV-1)
[26] = target: HIV-1 Env of isolate MGRM-D-005 (HIV-1)
[27] = target: HIV-1 Env of isolate MGRM-G-015 (clade G pseudovirus) (HIV-1)
[28] = target: HIV-1 Env of isolate MGRM-D-020 (HIV-1)
[29] = target: HIV-1 Env of pseudovirus MGRM-Chronic-B-002, clade B (HIV-1)
[30] = target: HIV-1 Env of pseudovirus TRJ0.58 (Acute), clade B (HIV-1)
[31] = target: HIV-1 Env of isolate MGRM-D-012 (clade D) (HIV-1)
[32] = target: HIV-1 93RW029 envelope glycoprotein (Env) (HIV-1)
[33] = target: HIV-1 JRCSF envelope glycoprotein (Env) on pseudovirus (HIV-1)
[34] = target: HIV-1 APV6 envelope glycoprotein (Env) on pseudovirus (HIV-1)

Substance | IC50 (µg/mL), pseudovirus neutralization [1] | IC50 (µg/mL), pseudovirus neutralization [2] | IC50, pseudovirus neutralization [3] | IC50, pseudovirus neutralization [4] | IC50 (µg/mL), pseudovirus neutralization [5] | IC50 (µg/mL) neutralization [6] | IC50 (µg/mL), pseudovirus neutralization [7] | IC50 (µg/mL) neutralization [8] | IC50 [9] | IC50 [10] | IC50 (µg/mL), pseudovirus neutralization [13] | IC50 (ug/ml), neutralizing activity [18] | IC50 (ug/ml), neutralizing activity [20] | IC50 (ug/ml), neutralizing activity [34] | also measured
5145_B14 (PGT-127) (antibody) | 7.17 µg/mL | > 50 µg/mL | 36.7 µg/mL | 0.05 µg/mL | > 50 µg/mL | 0.57 µg/mL | > 50 µg/mL | > 50 µg/mL | > 50 µg/mL | 3.59 µg/mL | > 50 µg/mL |  |  |  | Fold IC50 increase relative to wild-type [11]: 1 fold; Fold IC50 increase relative to wild-type [12]: 1.5 fold
PGT-121 (antibody) |  |  |  |  |  |  |  |  |  |  |  |  |  |  | IC50 (µg/mL), pseudovirus neutralization [14]: > 50 µg/mL; IC50 (µg/mL), pseudovirus neutralization [15]: 0.003 µg/mL; IC50 (µg/mL), pseudovirus neutralization [16]: 0.019 µg/mL; IC50 (µg/mL), pseudovirus neutralization [17]: > 50 µg/mL
4838_L06 (PGT-121) (antibody) | 5.33 µg/mL | > 50 µg/mL | 0.098 µg/mL | 0.004 µg/mL | > 50 µg/mL | 0.015 µg/mL | > 50 µg/mL | 0.052 µg/mL | 0.104 µg/mL | 0.04 µg/mL | 0.009 µg/mL | > 10 µg/mL |  |  | 
1496_C09 (PG9) (TCN-109) (antibody) |  |  |  |  |  |  |  |  |  |  |  |  | 0.113 µg/mL | 0.214 µg/mL | IC50 (µg/ml), pseudovirus neutralization [19]: 5.43 µg/mL; IC50 neutralization [20]: 0.113 µg/mL; IC50 (µg/ml), pseudovirus neutralization [21]: 0.03 µg/mL; IC50 (µg/ml), pseudovirus neutralization [22]: 4.39 µg/mL; IC50 [23]: 0.64 µg/mL; IC50 (µg/mL), pseudovirus neutralization [24]: 40.6 µg/mL; IC50 [15]: 0.006 µg/mL; IC50 (µg/ml), pseudovirus neutralization [25]: 0.03 µg/mL; IC50 (µg/mL), pseudovirus neutralization [26]: 1.8 µg/mL; IC50 (µg/ml), pseudovirus neutralization [27]: 1.51 µg/mL; IC50 (µg/mL), pseudovirus neutralization [28]: 1.67 µg/mL; IC50 (µg/ml), pseudovirus neutralization [29]: 1.41 µg/mL; IC50 (µg/ml), pseudovirus neutralization [30]: 0.43 µg/mL; IC50 (µg/ml), pseudovirus neutralization [31]: 9.31 µg/mL; IC50 (µg/ml), pseudovirus neutralization [32]: 1.19 µg/mL; IC90 (pseudovirus neutralization) [33]: < 0.0025 µg/mL; IC50 neutralization [34]: 0.214 µg/mL; IC80, neutralization [34]: 1.13 µg/mL; IC90, neutralization [34]: 3.21 µg/mL; IC95, neutralization [34]: 9.65 µg/mL
4877_D15 (PGT-122) (antibody) | 3.27 µg/mL | > 50 µg/mL | 0.103 µg/mL | 0.005 µg/mL | > 50 µg/mL | 0.027 µg/mL | > 50 µg/mL | 0.102 µg/mL | 0.277 µg/mL | 0.563 µg/mL | 3.34 µg/mL | > 10 µg/mL | 0.0089 µg/mL | 0.0851 µg/mL | 
5141_B17 (PGT-126) (antibody) | 0.078 µg/mL | > 50 µg/mL | 0.119 µg/mL | 0.021 µg/mL | > 50 µg/mL | 0.298 µg/mL | > 50 µg/mL | > 50 µg/mL | > 50 µg/mL | 14.9 µg/mL | > 50 µg/mL | > 10 µg/mL | 0.0076 µg/mL | 0.0249 µg/mL | Fold IC50 increase relative to wild-type [11]: 0.6 fold; Fold IC50 increase relative to wild-type [12]: 3.3 fold
PGT-122 (antibody) |  |  |  |  |  |  |  |  |  |  |  |  |  |  | IC50 (µg/mL), pseudovirus neutralization [14]: > 50 µg/mL; IC50 (µg/mL), pseudovirus neutralization [15]: 0.003 µg/mL; IC50 (µg/mL), pseudovirus neutralization [16]: 0.084 µg/mL; IC50 (µg/mL), pseudovirus neutralization [17]: > 50 µg/mL
PGV04 (antibody) |  |  |  |  |  |  |  |  |  |  |  |  |  |  | IC50 (µg/mL), pseudovirus neutralization [24]: 0.461 µg/mL; IC50 [15]: 0.014 µg/mL; IC50 [16]: 0.083 µg/mL; IC50 (µg/mL), pseudovirus neutralization [26]: > 50 µg/mL; IC50 (µg/mL), pseudovirus neutralization [28]: 0.097 µg/mL
VRC01 (antibody) |  |  |  |  |  |  |  |  |  |  |  |  |  |  | IC50, pseudovirus neutralization [9]: 0.055 µg/mL; IC50, pseudovirus neutralization [10]: 0.032 µg/mL; IC50, pseudovirus neutralization [28]: 0.192 µg/mL

From patent US20200024330A1
